Values joined by “and” are separate entries in the source; they are usually repeats but may differ in a detail not shown here. Equal entries are not always repeated.

Sequence of TC3 (chain, as listed by the source, chain 1 of 3, other chains not shown): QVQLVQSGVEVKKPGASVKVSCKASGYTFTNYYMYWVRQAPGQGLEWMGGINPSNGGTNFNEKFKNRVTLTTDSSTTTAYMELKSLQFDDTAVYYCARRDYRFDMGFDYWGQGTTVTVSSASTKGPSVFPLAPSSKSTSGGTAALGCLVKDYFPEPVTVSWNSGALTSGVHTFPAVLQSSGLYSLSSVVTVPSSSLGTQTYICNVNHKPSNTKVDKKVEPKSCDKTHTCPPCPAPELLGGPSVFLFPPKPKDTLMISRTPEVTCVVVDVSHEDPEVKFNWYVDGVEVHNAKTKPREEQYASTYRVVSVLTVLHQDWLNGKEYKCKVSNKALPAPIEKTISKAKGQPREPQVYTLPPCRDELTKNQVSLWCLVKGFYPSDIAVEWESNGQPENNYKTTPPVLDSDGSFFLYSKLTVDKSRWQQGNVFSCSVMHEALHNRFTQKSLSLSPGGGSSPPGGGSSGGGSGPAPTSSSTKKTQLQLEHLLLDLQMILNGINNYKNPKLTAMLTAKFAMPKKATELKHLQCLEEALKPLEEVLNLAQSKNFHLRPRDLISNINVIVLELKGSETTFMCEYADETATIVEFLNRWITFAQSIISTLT
Sequence of TC3 (chain, as listed by the source, chain 2 of 3, other chains not shown): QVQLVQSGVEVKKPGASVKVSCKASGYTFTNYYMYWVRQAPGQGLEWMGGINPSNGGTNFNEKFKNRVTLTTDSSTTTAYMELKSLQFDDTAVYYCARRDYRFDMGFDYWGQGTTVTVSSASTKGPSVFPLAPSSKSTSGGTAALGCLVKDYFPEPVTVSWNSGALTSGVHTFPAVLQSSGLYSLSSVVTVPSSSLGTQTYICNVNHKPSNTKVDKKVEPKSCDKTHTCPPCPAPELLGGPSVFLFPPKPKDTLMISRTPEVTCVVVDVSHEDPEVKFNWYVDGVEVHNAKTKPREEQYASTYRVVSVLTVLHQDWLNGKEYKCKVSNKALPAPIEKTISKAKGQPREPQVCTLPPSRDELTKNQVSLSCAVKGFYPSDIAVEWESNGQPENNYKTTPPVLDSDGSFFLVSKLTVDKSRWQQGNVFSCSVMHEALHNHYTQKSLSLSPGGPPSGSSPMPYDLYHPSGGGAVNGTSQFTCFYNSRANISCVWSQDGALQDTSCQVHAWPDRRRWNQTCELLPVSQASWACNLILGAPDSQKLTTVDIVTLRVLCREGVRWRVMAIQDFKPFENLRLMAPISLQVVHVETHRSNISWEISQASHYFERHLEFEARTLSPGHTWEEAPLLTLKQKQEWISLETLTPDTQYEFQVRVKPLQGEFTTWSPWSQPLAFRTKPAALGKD
Sequence of TC47 (chain, as listed by the source, chain 1 of 3, other chains not shown): as the sequence (chain, as listed by the source, chain 1 of 3, other chains not shown) above
Sequence of TC47 (chain, as listed by the source, chain 2 of 3, other chains not shown): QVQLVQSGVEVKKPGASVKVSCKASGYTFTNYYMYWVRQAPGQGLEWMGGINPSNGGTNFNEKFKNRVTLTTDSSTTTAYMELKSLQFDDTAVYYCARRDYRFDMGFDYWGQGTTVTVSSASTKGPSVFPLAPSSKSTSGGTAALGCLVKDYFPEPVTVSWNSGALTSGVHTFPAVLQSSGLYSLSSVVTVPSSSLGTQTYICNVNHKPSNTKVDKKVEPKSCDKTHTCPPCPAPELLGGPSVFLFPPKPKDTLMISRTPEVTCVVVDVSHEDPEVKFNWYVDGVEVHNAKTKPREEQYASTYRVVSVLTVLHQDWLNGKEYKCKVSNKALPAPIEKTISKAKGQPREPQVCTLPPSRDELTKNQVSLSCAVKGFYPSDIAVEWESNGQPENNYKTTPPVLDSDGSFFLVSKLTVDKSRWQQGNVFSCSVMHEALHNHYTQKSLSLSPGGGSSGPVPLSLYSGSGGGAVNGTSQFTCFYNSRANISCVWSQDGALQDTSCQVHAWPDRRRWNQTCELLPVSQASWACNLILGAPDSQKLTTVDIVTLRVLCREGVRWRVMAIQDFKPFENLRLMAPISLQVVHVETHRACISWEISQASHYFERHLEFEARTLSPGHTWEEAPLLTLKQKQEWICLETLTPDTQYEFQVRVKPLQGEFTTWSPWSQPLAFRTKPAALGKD
Sequence of TC24 (chain, as listed by the source, chain 1 of 3, other chains not shown): as the sequence (chain, as listed by the source, chain 1 of 3, other chains not shown) above
Sequence of TC24 (chain, as listed by the source, chain 2 of 3, other chains not shown): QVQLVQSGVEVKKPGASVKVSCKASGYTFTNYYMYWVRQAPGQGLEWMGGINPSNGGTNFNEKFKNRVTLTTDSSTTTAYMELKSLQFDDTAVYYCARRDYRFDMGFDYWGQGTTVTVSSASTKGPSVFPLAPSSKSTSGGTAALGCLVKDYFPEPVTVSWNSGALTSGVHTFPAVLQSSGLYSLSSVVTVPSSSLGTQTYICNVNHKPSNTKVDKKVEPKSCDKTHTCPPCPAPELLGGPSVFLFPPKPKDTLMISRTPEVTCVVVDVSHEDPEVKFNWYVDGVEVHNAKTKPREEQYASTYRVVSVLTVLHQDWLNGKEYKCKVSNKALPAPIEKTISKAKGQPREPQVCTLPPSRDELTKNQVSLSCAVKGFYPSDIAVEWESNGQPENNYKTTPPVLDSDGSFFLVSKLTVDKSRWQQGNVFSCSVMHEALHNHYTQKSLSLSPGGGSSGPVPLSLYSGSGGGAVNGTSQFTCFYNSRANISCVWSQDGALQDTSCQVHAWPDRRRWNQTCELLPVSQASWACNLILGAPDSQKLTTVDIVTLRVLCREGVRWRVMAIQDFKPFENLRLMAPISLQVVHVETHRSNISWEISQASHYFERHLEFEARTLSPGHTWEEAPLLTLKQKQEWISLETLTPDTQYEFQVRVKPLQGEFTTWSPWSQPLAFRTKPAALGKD
Sequence of TC46 (chain, as listed by the source, chain 1 of 3, other chains not shown): as the sequence (chain, as listed by the source, chain 1 of 3, other chains not shown) above
Sequence of TC46 (chain, as listed by the source, chain 2 of 3, other chains not shown): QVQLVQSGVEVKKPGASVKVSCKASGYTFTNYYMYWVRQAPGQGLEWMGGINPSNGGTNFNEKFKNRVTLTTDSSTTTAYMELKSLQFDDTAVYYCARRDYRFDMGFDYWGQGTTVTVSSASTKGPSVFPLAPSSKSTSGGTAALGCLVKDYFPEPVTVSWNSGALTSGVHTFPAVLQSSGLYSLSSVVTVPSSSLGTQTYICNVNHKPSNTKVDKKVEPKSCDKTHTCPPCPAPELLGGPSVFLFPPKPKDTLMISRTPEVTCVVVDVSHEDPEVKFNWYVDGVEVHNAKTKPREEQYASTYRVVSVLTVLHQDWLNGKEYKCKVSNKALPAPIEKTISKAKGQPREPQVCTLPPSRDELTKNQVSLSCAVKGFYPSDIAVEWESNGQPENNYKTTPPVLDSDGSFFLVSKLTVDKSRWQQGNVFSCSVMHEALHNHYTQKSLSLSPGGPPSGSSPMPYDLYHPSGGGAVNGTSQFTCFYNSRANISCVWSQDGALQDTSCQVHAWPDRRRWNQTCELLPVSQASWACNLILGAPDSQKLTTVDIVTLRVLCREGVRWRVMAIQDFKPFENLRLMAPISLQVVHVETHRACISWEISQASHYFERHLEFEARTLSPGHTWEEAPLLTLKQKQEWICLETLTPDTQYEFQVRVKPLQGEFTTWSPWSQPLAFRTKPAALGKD

B1: recombinant human MMP-7 (protein)
chain: YSLFPNSPKWTSKVVTYRIVSYTRDLPHITVDRLVSKALNMWGKEIPLHFRKVVWGTADIMIGFARGAHGDSYPFDGPGNTLAHAFAPGTGLGGDAHFDEDERWTDGSSLGINFLYAATHELGHSLGMGHSSDPNAVMYPTYGNGDPQNFKLSQDDIKGIQKLYGKRSNSRKK
As to B1, the Est. kcat/KM with TC73 is 71000 M⁻¹ s⁻¹ and 67000 M⁻¹ s⁻¹; with TC75, 18000 M⁻¹ s⁻¹ and 19000 M⁻¹ s⁻¹; with TC71 it was 19000 M⁻¹ s⁻¹ and 22000 M⁻¹ s⁻¹; in the series with TC46, 13000 M⁻¹ s⁻¹; with TC24, 140000 M⁻¹ s⁻¹; in the series with TC68, 13000 M⁻¹ s⁻¹. Also, the Est. kcat/KM with TC69 is 78000 M⁻¹ s⁻¹; with TC47, 130000 M⁻¹ s⁻¹; in the series with TC57, 13000 M⁻¹ s⁻¹ and 15000 M⁻¹ s⁻¹; in the series with TC3 it was 13000 M⁻¹ s⁻¹; with TC53 it was 24000 M⁻¹ s⁻¹ and 23000 M⁻¹ s⁻¹.

B2: recombinant human MMP-2 (protein)
chain: YNFFPRKPKWDKNQITYRIIGYTPDLDPETVDDAFARAFQVWSDVTPLRFSRIHDGEADIMINFGRWEHGDGYPFDGKDGLLAHAFAPGTGVGGDSHFDDDELWTLGEGQVVRVKYGNADGEYCKFPFLFNGKEYNSCTDTGRSDGFLWCSTTYNFEKDGKYGFCPHEALFTMGGNAEGQPCKFPFRFQGTSYDSCTTEGRTDGYRWCGTTEDYDRDKKYGFCPETAMSTVGGNSEGAPCVFPFTFLGNKYESCTSAGRSDGKMWCATTANYDDDRKWGFCPDQGYSLFLVAAHEFGHAMGLEHSQDPGALMAPIYTYTKNFRLSQDDIKGIQELYGASPDIDLGTGPTPTLGPVTPEICKQDIVFDGIAQIRGEIFFFKDRFIWRTVTPRDKPMGPLLVATFWPELPEKIDAVYEAPQEEKAVFFAGNEYWIYSASTLERGYPKPLTSLGLPPDVQRVDAAFNWSKNKKTYIFAGDKFWRYNEVKKKMDPGFPKLIADAWNAIPDNLDAVVDLQGGGHSYFFKGAYYLKLENQSLKSVKFGSIKSDWLGC
Take B2: the Est. kcat/KM with TC73 is 43000 M⁻¹ s⁻¹ and 41000 M⁻¹ s⁻¹; with TC75, 120000 M⁻¹ s⁻¹ and 110000 M⁻¹ s⁻¹; in the series with TC71, 130000 M⁻¹ s⁻¹ and 140000 M⁻¹ s⁻¹; with TC74, 9600 M⁻¹ s⁻¹ and 9800 M⁻¹ s⁻¹; with TC68, 3800 M⁻¹ s⁻¹; in the series with TC69, 51000 M⁻¹ s⁻¹ and 50000 M⁻¹ s⁻¹. Also, the Est. kcat/KM with TC70 is 11000 M⁻¹ s⁻¹; in the series with TC57 it was 4000 M⁻¹ s⁻¹ and 4400 M⁻¹ s⁻¹; in the series with TC53 it was 4900 M⁻¹ s⁻¹ and 4700 M⁻¹ s⁻¹.

For the origin of these results see patent publication US20230365641.
